The values that follow come from PMC8693978.

In assay [1] the target is EGFP-ARHGAP4 Rho-GAP deletion mutant (human). Put plainly: co-IP.
Assay [2] addresses EGFP-ARHGAP4 SH3 deletion mutant (human). Briefly: co-IP.

B1: SEPT2 (natural protein)
chain: MSKQQPTQFINPETPGYVGFANLPNQVHRKSVKKGFEFTLMVVGESGLGKSTLINSLFLTDLYPERVIPGAAEKIERTVQIEASTVEIEERGVKLRLTVVDTPGYGDAINCRDCFKTIISYIDEQFERYLHDESGLNRRHIIDNRVHCCFYFISPFGHGLKPLDVAFMKAIHNKVNIVPVIAKADTLTLKERERLKKRILDEIEEHNIKIYHLPDAESDEDEDFKEQTRLLKASIPFSVVGSNQLIEAKGKKVRGRLYPWGVVEVENPEHNDFLKLRTMLITHMQDLQEVTQDLHYENFRSERLKRGGRKVENEDMNKDQILLEKEAELRRMQEMIARMQAQMQMQMQGGDGDGGALGHHV
Consider B1, for which the percent of the co-precipitation by full-length ARHGAP4 in assay [1] is 55%; in assay [2] it was 65%.

B2: SEPT9 (natural protein)
chain: MKKSYSGGTRTSSGRLRRLGDSSGPALKRSFEVEEVETPNSTPPRRVQTPLLRATVASSTQKFQDLGVKNSEPSARHVDSLSQRSPKASLRRVELSGPKAAEPVSRRTELSIDISSKQVENAGAIGPSRFGLKRAEVLGHKTPEPAPRRTEITIVKPQESAHRRMEPPASKVPEVPTAPATDAAPKRVEIQMPKPAEAPTAPSPAQTLENSEPAPVSQLQSRLEPKPQPPVAEATPRSQEATEAAPSCVGDMADTPRDAGLKQAPASRNEKAPVDFGYVGIDSILEQMRRKAMKQGFEFNIMVVGQSGLGKSTLINTLFKSKISRKSVQPTSEERIPKTIEIKSITHDIEEKGVRMKLTVIDTPGFGDHINNENCWQPIMKFINDQYEKYLQEEVNINRKKRIPDTRVHCCLYFIPATGHSLRPLDIEFMKRLSKVVNIVPVIAKADTLTLEERVHFKQRITADLLSNGIDVYPQKEFDEDSEDRLVNEKFREMIPFAVVGSDHEYQVNGKRILGRKTKWGTIEVENTTHCEFAYLRDLLIRTHMQNIKDITSSIHFEAYRVKRLNEGSSAMANGMEEKEPEAPEM
With B2, the percent of the co-precipitation by full-length ARHGAP4 in assay [1] is 55%; in assay [2], 65%.
